# Data published in publication PMC10529061.
# Target: His6-tagged CHIP (C-terminus of Hsc70-interacting protein) (UniProt Q9UNE7)
# Assay: BLI
# UniProt Q9UNE7, sequence (Q9UNE7 whole entry): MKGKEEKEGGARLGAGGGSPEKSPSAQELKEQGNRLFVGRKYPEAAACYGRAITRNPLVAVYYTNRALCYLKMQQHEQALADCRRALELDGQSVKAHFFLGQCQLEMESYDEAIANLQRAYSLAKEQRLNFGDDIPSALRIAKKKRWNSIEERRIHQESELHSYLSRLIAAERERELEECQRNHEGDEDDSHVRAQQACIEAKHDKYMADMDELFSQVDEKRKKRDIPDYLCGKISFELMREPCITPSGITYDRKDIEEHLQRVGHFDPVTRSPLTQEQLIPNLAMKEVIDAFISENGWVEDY
substance,measurement,value
"E2 (UbcH5b), wild type (from UniProt P62837 1-147) (enzyme; other documents disagree on this pair)",Kd,6.28 µM
